Four molecules from US20240343835A1, “COVALENT HETEROBIVALENT ANTIBODY INHIBITORS AND LIGANDS” (UNIVERSITY OF NOTRE DAME DU LAC, priority 2015, published 2024) can be followed below.

Assay [1] has as its target Trastuzumab (anti-HER2/neu IgG). The experiment in a line: fluorescence quenching, ligand titrated into 30 nM trastuzumab.
The target is the same in assay [2]. As to the kind of experiment: fluorescence quenching: ligand titrated into trastuzumab, F/F0 against Ligand (nM).
Assay [3] has the same target. As to the kind of experiment: method not stated in the legend.
The target is the same in assay [4]. The experiment in a line: flow cytometry on HER2-expressing cells, FITC signal of cHBL-tagged trastuzumab.
Assay [5] has the same target. As to the kind of experiment: fluorescence quenching, ligand titrated into 30 nM trastuzumab; apparent Kd.
Assay [6] has the same target. As to the kind of experiment: fluorescence quenching.

Ends that are not written are not given here.

B1: Trast-DNP (Trastuzumab binding peptide tagged with DNP) (peptide)
peptide: LLGPYELWELSH
modifications: not fully specified (C-terminus); also: DNP attached via EG2 spacer, attachment site not given here
With B1, the Kd in assay [1] amounted to 200 nM. In addition, in assay [2], the EC50 (read off the curve) – broadly, the concentration giving half of the maximal effect – turned out to be 200 nM.

B2: Trastuzumab binding peptide … (peptide)
peptide: LLGPYELWELSH
In assay [3], B2 displayed a Kd of 1200 nM.

B3: Trast-cHBL (Peptide-…) (peptide)
peptide: LLGPYELWELSH
modifications: also: 5(6)-carboxyfluorescein via EG2 spacer, EG6x2 spacer on peptide, branching Lys with 2-naphthaleneacetic acid on alpha-amine and EG4-isothiocyanate on epsilon-amine, attachment sites not given here
The molecule B3 gave a percent of maximum FITC signal at 1 µM cHBL in assay [4] of 50%.

B4: Trast-Napht-DNP (peptide)
peptide: LLGPYELWELSH
modifications: also: DNP attached via EG2 spacer, 2-naphthaleneacetic acid attached via ethylene glycol spacer, attachment sites not given here
Turning to B4, the Kd in assay [5] turned out to be 46.6 nM. Besides, the fold increase in observed affinity against the peptide without napht in assay [6] is above 4 fold. In assay [2], this molecule yielded an EC50 (read off the curve) of 50 nM.
